This note sets out measurements from patent US20240239864A1 (US Dept. of Health and Human Services, published 2024).

The test deals with T1, HLA-A*02:01 CD22 p228-236 tetramer (human).
T1 construct: Bought monomer, loaded by UV peptide exchange and made into a tetramer; The streptavidin and label are not described; also called p-MHC tetramer
The test is described as follows: p-MHC tetramer staining of T cells of co-culture well D146W8, flow cytometry. For orientation: Flow cytometry measures light scatter and fluorescence of single cells or particles in a stream.

B1: TCR clone D146W8 (native clone on the T cells of co-culture well D146W8) (TCR, V domains shown)
V domain 1: QKEVEQNSGPLSVPEGAIASLNCTYSDRGSQSFFWYRQYSGKSPELIMFIYSNGDKEDGRFTAQLNKASQYVSLLIRDSQPSDSATYLCAVKGAGGFKTIFGAGTRLFVKA
V domain 2: DTGVSQNPRHKITKRGQNVTFRCDPISEHNRLYWYRQTLGQGPEFLTYFQNEAQLEKSRLLSDRFSAERPKGSFSTLEIQRTEQGDSAMYLCASSPGNTEAFFGQGTRLTVV
notes: also called D146W8 TCR; not shown: constant region of the native human clone
On to B1, for which the binding result was “binds”.
